What was measured:
[1] = molecular target: T1, recombinant human HER3-Fc chimera protein (R&D Systems) (human, UniProt P21860 20-643); test: BLI (Octet Red), antibody on AR2G sensor, HER3-Fc 10-263 nM, 1:1 fit
T1 construct: extracellular domain; Bought from R&D Systems; also called recombinant human HER3 extracellular domain; recombinant HER3; not shown: Fc part of the purchased chimera
Protocol: Binding kinetics were measured using an Octet Red instrument (ForteBio, Menlo Park, Calif.), following the manufacturer's protocol. Binding assays were performed in 96-well microtiter plates at 30° C. with sample plate orbital motion agitation at 1000 rpm. All washes, dilutions, and measurements were performed in phosphate buffered saline (PBS), pH 7.4. The IgG and antibody fragments were immobilized on amine-reactive second generation (AR2G) sensors using the manufacturer's protocol at pH 5 followed by quenching with 1 M ethanolamine, pH 8.5. […] Binding was monitored by placing sensors into wells for 5 min, followed by dissociation in PBS for 10 min. KD, kON, and kOFF were determined with ForteBio Data Analysis software v7.1.0.33 through locally fitting the processed data using a 1:1 binding model.

[2] = molecular target: T1, recombinant human HER3-Fc chimera …; test: BLI, IRDye800CW-labeled antibody
[3] = molecular target: HER3 (as used in the biolayer interferometry of Example 2) (UniProt P21860 20-643, limits assumed); test: BLI
Sequence of HER3 (as used in the biolayer interferometry of Example 2) (P21860 20-643 limits assumed): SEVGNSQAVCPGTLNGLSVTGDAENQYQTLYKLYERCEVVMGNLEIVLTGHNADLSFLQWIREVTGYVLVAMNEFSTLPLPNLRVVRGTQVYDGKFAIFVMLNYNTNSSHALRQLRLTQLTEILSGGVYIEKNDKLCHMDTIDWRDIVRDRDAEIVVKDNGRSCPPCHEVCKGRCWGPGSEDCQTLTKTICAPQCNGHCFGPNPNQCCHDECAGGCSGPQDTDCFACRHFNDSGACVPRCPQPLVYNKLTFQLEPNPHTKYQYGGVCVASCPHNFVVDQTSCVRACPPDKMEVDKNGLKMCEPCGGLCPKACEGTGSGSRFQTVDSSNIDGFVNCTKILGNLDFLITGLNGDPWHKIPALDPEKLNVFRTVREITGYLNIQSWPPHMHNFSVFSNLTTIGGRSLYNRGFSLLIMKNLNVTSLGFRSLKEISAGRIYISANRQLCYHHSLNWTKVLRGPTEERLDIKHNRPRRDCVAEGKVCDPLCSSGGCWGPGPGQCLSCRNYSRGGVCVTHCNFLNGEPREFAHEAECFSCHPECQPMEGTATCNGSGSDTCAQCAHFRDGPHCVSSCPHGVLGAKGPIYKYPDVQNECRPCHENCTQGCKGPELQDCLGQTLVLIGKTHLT

T1 sequence (P21860 20-643, change not shown): as the sequence (P21860 20-643 limits assumed) above

| Binder | Kd [1] | koff [1] | kon [1] | Kd [2] | other results |
| --- | --- | --- | --- | --- | --- |
| anti-HER3 diabody (other, VL-GGGGS-VH of HER3-3; bivalent (51.6 kDa), expressed in E. coli) SDIQMTQSPSSLSASVGDRVTITCRASQGISNYLAWYQQKPGKAPKLLIYAASSLQSGVPSRFSGSRSGTDFTLTISSLQPEDFATYYCQQYGWLPLTFGQGTKVEIKGGGGSEISEVQLVESGGGLVQPGGSLRLSCAASGFTFSSYGMHWVRQAPGKGLEWVAVISYDGSNKYYADSVKGRFTISRDNSKNTLYLQMNSLRAEDTAVYYCARTDPYSLGGYYFDYWGQGTLVTVSS | 3 nM | 0.00044 s⁻¹ | 150000 M⁻¹ s⁻¹ |  |  |
| anti-HER3 diabody labeled with IRDye800CW (other, IRDye800CW-NHS label, 1-2 dye molecules per fragment, sites not stated, m5 labelled with IRDye800CW; also called IRDye800CW-labeled diabody) SDIQMTQSPSSLSASVGDRVTITCRASQGISNYLAWYQQKPGKAPKLLIYAASSLQSGVPSRFSGSRSGTDFTLTISSLQPEDFATYYCQQYGWLPLTFGQGTKVEIKGGGGSEISEVQLVESGGGLVQPGGSLRLSCAASGFTFSSYGMHWVRQAPGKGLEWVAVISYDGSNKYYADSVKGRFTISRDNSKNTLYLQMNSLRAEDTAVYYCARTDPYSLGGYYFDYWGQGTLVTVSS |  |  |  | 2.4 nM |  |
| anti-HER3 scFv (scFv, VL-(GGGGS)3-VH of HER3-3, expressed in E. coli) scFv: SDIQMTQSPSSLSASVGDRVTITCRASQGISNYLAWYQQKPGKAPKLLIYAASSLQSGVPSRFSGSRSGTDFTLTISSLQPEDFATYYCQQYGWLPLTFGQGTKVEIKGGGGSGGGGSGGGGSEISEVQLVESGGGLVQPGGSLRLSCAASGFTFSSYGMHWVRQAPGKGLEWVAVISYDGSNKYYADSVKGRFTISRDNSKNTLYLQMNSLRAEDTAVYYCARTDPYSLGGYYFDYWGQGTLVTVSS | 20 nM | 0.00054 s⁻¹ | 33000 M⁻¹ s⁻¹ |  | Kd [3]: 21.6 nM; koff [3]: 0.00127 s⁻¹; kon [3]: 60400 M⁻¹ s⁻¹ |
| anti-HER3 scFv labeled with IRDye800CW (scFv, IRDye800CW-NHS label, 1-2 dye molecules per fragment, sites not stated, m4 labelled with IRDye800CW; also called IRDye800CW-labeled scFv) scFv: SDIQMTQSPSSLSASVGDRVTITCRASQGISNYLAWYQQKPGKAPKLLIYAASSLQSGVPSRFSGSRSGTDFTLTISSLQPEDFATYYCQQYGWLPLTFGQGTKVEIKGGGGSGGGGSGGGGSEISEVQLVESGGGLVQPGGSLRLSCAASGFTFSSYGMHWVRQAPGKGLEWVAVISYDGSNKYYADSVKGRFTISRDNSKNTLYLQMNSLRAEDTAVYYCARTDPYSLGGYYFDYWGQGTLVTVSS |  |  |  | 29 nM |  |
| anti-HER3 scFv-CH3 labeled with IRDye800CW (other, also called IRDye800CW-labeled scFv-CH3) SDIQMTQSPSSLSASVGDRVTITCRASQGISNYLAWYQQKPGKAPKLLIYAASSLQSGVPSRFSGSRSGTDFTLTISSLQPEDFATYYCQQYGWLPLTFGQGTKVEIKGGGGSGGGGSGGGGSEISEVQLVESGGGLVQPGGSLRLSCAASGFTFSSYGMHWVRQAPGKGLEWVAVISYDGSNKYYADSVKGRFTISRDNSKNTLYLQMNSLRAEDTAVYYCARTDPYSLGGYYFDYWGQGTLVTVSSEPKSCDKTHTCPPCPGQPREPQVYTLPPSREEMTKNQVSLTCLVKGFYPSDIAVEWESNGQPENNYKTTPPVLDSDGSFFLYSKLTVDKSRWQQGNVFSCSVMHEALHNHYTQKSLSLSPGK |  |  |  | 2.1 nM |  |
